B1: GST-hRad1 (natural protein, human, UniProt O60671 1-282, looked up)
chain: MPLLTQQIQDEDDQYSLVASLDNVRNLSTILKAIHFREHATCFATKNGIKVTVENAKCVQANAFIQAGIFQEFKVQEESVTFRINLTVLLDCLSIFGSSPMPGTLTALRMCYQGYGYPLMLFLEEGGVVTVCKINTQEPEETLDFDFCSTNVINKIILQSEGLREAFSELDMTSEVLQITMSPDKPYFRLSTFGNAGSSHLDYPKDSDLMEAFHCNQTQVNRYKISLLKPSTKALVLSCKVSIRTDNRGFLSLQYMIRNEDGQICFVEYYCCPDEEVPESES
B2: GST-hRad9 (natural protein, human, UniProt Q99638 1-391, looked up)
chain: MKCLVTGGNVKVLGKAVHSLSRIGDELYLEPLEDGLSLRTVNSSRSAYACFLFAPLFFQQYQAATPGQDLLRCKILMKSFLSVFRSLAMLEKTVEKCCISLNGRSSRLVVQLHCKFGVRKTHNLSFQDCESLQAVFDPASCPHMLRAPARVLGEAVLPFSPALAEVTLGIGRGRRVILRSYHEEEADSTAKAMVTEMCLGEEDFQQLQAQEGVAITFCLKEFRGLLSFAESANLNLSIHFDAPGRPAIFTIKDSLLDGHFVLATLSDTDSHSQDLGSPERHQPVPQLQAHSTPHPDDFANDDIDSYMIAMETTIGNEGSRVLPSISLSPGPQPPKSPGPHSEEEDEAEPSTVPGTPPPKKFRSLFFGSILAPVRSPQGPSPVLAEDSEGEG
B3: His-tagged hTDG(67-308) (domain or fragment, human, UniProt Q13569 67-308, looked up)
chain: TTEPKQPVEPKKPVESKKSGKSAKSKEKQEKITDTFKVKRKVDRFNGVSEAELLTKTLPDILTFNLDIVIIGINPGLMAAYKGHHYPGPGNHFWKCLFMSGLSEVQLNHMDDHTLPGKYGIGFTNMVERTTPGSKDLSSKEFREGGRILVQKLQKYQPRIAVFNGKCIYEIFSKEVFGVKVKNLEFGLQPHKIPDTETLCYVMPSSSARCAQFPRAQDKVHYYIKLKDLRDQLKGIERNMDV
B4: His-tagged hHus1 expressed in E. coli (natural protein, human, UniProt O60921 1-280, looked up)
chain: MKFRAKIVDGACLNHFTRISNMIAKLAKTCTLRISPDKLNFILCDKLANGGVSMWCELEQENFFNEFQMEGVSAENNEIYLELTSENLSRALKTAQNARALKIKLTNKHFPCLTVSVELLSMSSSSRIVTHDIPIKVIPRKLWKDLQEPVVPDPDVSIYLPVLKTMKSVVEKMKNISNHLVIEANLDGELNLKIETELVCVTTHFKDLGNPPLASESTHEDRNVEHMAEVHIDIRKLLQFLAGQQVNPTKALCNIVNNKMVHFDLLHEDVSLQYFIPALS
B5: GST-hHus1 (natural protein, human, UniProt O60921 1-280, looked up)
chain: B4 chain
B6: His-tagged hTDG-ΔC1(1-308) (domain or fragment, human, UniProt Q13569 1-308, looked up)
chain: MEAENAGSYSLQQAQAFYTFPFQQLMAEAPNMAVVNEQQMPEEVPAPAPAQEPVQEAPKGRKRKPRTTEPKQPVEPKKPVESKKSGKSAKSKEKQEKITDTFKVKRKVDRFNGVSEAELLTKTLPDILTFNLDIVIIGINPGLMAAYKGHHYPGPGNHFWKCLFMSGLSEVQLNHMDDHTLPGKYGIGFTNMVERTTPGSKDLSSKEFREGGRILVQKLQKYQPRIAVFNGKCIYEIFSKEVFGVKVKNLEFGLQPHKIPDTETLCYVMPSSSARCAQFPRAQDKVHYYIKLKDLRDQLKGIERNMDV
B7: GST-hTDG-N(1-124) (domain or fragment, human, UniProt Q13569 1-124, looked up)
chain: MEAENAGSYSLQQAQAFYTFPFQQLMAEAPNMAVVNEQQMPEEVPAPAPAQEPVQEAPKGRKRKPRTTEPKQPVEPKKPVESKKSGKSAKSKEKQEKITDTFKVKRKVDRFNGVSEAELLTKTL

Common to all, as to assay: pull-down
Test [1] addresses His-tagged human thymine DNA glycosylase, full length (hTDG-full, residues 1-410) (human, UniProt Q13569 1-410).
The target of test [2] is B6.
Test [3] deals with B1.
For test [4], the target named is B2.
For test [5], the target named is GST-hTDG (full length) (human, UniProt Q13569 1-410).
Test [6] deals with B4.

The source of these data is PMC2094074 (Nucleic Acids Research, 2007).

On to B1, for which the binding result in test [1] and in test [2] was “binds” in each case. As for B2, in test [1], the binding result was “binds”. For the molecule B3, the binding result in test [3] and in test [4] was “binds” in each case.

Take B4: the binding result in test [5] is recorded as “binds”. With B5, in test [2], the binding result was “binds”. As for B6, the binding result in test [4] is reported as “binds”. B7: in test [6], the binding result is “binds”.
